Test results published in PMC5063997, “Engineered Tissue Inhibitor of Metalloproteinases-3 Variants Resistant to Endocytosis Have Prolonged Chondroprotective Activity*” (The Journal of Biological Chemistry, 2016).

Columns and labels:
[1] = biological target: low density lipoprotein receptor-related protein 1 (LRP1), full-length (UniProt Q07954)
[2] = biological target: low density lipoprotein receptor-related protein 1 (LRP1), full-length (UniProt Q07954); remark: listed apart in the source
ADAM17 ectodomain = biological target: T1, ADAM17 ectodomain (UniProt P78536 215-671); test: enzyme inhibition under equilibrium conditions (Ki(app), tight binding equation); apparent; ADAM17 preincubated with wild-type or mutant TIMP-3 (0.25-25 nM) 1 h at 37 °C, residual activity on a fluorescence-quenched substrate; 50 mM Tris-HCl pH 7.5, 25 mM NaCl, 10 mM CaCl2, 0.05% Brij 35, 0.02% NaN3; conditions: both partners purified
T1 construct: ADAM17, ectodomain; source: gift from Professor Gillian Murphy (University of Cambridge)

[3] = biological target: T2, catalytic domain of MMP-2 (MMP-2ΔC) (UniProt P08253 110-444); test: enzyme inhibition under equilibrium conditions (Ki(app), tight binding equation); apparent; metalloproteinase (0.5-1 nM) preincubated with wild-type or mutant TIMP-3 (0.25-25 nM) 1 h at 37 °C, residual activity on fluorescence-quenched substrates; 50 mM Tris-HCl pH 7.5, 150 mM NaCl, 10 mM CaCl2, 0.05% Brij 35, 0.02% NaN3; conditions: both partners purified
T2 construct: MMP-2, catalytic domain

[4] = biological target: T3, ADAMTS-5 lacking the C-terminal thrombospondin domain (UniProt Q9UNA0 262-874); test: as above; conditions: both partners purified
T3 construct: ADAMTS-5 without its C-terminal thrombospondin domain
T3 sequence (looked up): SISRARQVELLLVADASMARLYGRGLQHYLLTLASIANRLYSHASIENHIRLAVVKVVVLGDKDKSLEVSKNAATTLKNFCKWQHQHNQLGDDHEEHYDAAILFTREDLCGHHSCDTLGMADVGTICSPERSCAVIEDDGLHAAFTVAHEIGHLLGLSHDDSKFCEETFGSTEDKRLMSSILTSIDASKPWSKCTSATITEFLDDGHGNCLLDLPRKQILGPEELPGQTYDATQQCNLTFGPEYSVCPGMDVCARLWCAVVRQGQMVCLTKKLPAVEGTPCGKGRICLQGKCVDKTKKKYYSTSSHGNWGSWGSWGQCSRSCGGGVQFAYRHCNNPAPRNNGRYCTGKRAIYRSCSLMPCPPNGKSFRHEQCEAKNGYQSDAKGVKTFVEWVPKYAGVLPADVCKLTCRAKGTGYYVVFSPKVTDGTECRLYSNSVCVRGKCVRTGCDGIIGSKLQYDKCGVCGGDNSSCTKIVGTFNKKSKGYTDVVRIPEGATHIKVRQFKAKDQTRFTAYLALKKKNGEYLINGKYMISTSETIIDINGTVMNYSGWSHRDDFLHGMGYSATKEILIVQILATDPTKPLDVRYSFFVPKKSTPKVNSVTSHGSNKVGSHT

[5] = biological target: T4, ADAMTS-4 lacking the C-terminal spacer domain (UniProt O75173 213-685); test: as above; conditions: both partners purified
T4 construct: ADAMTS-4 without its C-terminal spacer domain
T4 sequence (looked up): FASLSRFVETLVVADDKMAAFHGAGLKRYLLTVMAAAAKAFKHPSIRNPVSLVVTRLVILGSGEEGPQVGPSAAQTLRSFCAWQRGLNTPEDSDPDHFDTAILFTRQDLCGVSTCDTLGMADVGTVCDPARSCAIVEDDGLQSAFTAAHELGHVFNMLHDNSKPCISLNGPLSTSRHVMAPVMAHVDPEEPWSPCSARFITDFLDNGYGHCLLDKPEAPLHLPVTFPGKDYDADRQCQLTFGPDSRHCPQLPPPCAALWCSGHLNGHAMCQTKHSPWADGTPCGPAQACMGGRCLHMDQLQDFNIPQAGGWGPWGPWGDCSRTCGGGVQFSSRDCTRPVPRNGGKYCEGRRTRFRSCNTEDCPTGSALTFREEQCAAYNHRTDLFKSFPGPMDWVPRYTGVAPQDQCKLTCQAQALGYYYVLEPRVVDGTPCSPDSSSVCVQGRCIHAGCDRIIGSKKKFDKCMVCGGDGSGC

[6] = biological target: T5, catalytic domain of MMP-1 (MMP-1ΔC) (UniProt P03956 100-269); test: as above; conditions: both partners purified
T5 construct: MMP-1, catalytic domain
T5 sequence (looked up): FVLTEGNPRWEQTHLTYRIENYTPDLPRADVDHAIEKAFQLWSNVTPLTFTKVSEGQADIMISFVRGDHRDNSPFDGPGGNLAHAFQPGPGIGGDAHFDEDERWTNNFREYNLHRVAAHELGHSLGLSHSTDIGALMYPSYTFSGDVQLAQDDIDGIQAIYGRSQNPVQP

[7] = biological target: T6, catalytic domain of MMP-3 (MMP-3ΔC) (UniProt P08254 100-272); test: as above; conditions: both partners purified
T6 construct: MMP-3, catalytic domain
T6 sequence (P08254 100-272, stated change not applied): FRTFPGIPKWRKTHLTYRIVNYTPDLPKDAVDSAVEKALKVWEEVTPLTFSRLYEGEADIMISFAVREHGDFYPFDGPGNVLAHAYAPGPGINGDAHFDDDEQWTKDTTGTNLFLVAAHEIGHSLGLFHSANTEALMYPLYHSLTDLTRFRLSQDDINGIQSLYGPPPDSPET

low density lipoprotein receptor-related protein 1 (LRP1), full-length, sequence (Q07954 20-4544): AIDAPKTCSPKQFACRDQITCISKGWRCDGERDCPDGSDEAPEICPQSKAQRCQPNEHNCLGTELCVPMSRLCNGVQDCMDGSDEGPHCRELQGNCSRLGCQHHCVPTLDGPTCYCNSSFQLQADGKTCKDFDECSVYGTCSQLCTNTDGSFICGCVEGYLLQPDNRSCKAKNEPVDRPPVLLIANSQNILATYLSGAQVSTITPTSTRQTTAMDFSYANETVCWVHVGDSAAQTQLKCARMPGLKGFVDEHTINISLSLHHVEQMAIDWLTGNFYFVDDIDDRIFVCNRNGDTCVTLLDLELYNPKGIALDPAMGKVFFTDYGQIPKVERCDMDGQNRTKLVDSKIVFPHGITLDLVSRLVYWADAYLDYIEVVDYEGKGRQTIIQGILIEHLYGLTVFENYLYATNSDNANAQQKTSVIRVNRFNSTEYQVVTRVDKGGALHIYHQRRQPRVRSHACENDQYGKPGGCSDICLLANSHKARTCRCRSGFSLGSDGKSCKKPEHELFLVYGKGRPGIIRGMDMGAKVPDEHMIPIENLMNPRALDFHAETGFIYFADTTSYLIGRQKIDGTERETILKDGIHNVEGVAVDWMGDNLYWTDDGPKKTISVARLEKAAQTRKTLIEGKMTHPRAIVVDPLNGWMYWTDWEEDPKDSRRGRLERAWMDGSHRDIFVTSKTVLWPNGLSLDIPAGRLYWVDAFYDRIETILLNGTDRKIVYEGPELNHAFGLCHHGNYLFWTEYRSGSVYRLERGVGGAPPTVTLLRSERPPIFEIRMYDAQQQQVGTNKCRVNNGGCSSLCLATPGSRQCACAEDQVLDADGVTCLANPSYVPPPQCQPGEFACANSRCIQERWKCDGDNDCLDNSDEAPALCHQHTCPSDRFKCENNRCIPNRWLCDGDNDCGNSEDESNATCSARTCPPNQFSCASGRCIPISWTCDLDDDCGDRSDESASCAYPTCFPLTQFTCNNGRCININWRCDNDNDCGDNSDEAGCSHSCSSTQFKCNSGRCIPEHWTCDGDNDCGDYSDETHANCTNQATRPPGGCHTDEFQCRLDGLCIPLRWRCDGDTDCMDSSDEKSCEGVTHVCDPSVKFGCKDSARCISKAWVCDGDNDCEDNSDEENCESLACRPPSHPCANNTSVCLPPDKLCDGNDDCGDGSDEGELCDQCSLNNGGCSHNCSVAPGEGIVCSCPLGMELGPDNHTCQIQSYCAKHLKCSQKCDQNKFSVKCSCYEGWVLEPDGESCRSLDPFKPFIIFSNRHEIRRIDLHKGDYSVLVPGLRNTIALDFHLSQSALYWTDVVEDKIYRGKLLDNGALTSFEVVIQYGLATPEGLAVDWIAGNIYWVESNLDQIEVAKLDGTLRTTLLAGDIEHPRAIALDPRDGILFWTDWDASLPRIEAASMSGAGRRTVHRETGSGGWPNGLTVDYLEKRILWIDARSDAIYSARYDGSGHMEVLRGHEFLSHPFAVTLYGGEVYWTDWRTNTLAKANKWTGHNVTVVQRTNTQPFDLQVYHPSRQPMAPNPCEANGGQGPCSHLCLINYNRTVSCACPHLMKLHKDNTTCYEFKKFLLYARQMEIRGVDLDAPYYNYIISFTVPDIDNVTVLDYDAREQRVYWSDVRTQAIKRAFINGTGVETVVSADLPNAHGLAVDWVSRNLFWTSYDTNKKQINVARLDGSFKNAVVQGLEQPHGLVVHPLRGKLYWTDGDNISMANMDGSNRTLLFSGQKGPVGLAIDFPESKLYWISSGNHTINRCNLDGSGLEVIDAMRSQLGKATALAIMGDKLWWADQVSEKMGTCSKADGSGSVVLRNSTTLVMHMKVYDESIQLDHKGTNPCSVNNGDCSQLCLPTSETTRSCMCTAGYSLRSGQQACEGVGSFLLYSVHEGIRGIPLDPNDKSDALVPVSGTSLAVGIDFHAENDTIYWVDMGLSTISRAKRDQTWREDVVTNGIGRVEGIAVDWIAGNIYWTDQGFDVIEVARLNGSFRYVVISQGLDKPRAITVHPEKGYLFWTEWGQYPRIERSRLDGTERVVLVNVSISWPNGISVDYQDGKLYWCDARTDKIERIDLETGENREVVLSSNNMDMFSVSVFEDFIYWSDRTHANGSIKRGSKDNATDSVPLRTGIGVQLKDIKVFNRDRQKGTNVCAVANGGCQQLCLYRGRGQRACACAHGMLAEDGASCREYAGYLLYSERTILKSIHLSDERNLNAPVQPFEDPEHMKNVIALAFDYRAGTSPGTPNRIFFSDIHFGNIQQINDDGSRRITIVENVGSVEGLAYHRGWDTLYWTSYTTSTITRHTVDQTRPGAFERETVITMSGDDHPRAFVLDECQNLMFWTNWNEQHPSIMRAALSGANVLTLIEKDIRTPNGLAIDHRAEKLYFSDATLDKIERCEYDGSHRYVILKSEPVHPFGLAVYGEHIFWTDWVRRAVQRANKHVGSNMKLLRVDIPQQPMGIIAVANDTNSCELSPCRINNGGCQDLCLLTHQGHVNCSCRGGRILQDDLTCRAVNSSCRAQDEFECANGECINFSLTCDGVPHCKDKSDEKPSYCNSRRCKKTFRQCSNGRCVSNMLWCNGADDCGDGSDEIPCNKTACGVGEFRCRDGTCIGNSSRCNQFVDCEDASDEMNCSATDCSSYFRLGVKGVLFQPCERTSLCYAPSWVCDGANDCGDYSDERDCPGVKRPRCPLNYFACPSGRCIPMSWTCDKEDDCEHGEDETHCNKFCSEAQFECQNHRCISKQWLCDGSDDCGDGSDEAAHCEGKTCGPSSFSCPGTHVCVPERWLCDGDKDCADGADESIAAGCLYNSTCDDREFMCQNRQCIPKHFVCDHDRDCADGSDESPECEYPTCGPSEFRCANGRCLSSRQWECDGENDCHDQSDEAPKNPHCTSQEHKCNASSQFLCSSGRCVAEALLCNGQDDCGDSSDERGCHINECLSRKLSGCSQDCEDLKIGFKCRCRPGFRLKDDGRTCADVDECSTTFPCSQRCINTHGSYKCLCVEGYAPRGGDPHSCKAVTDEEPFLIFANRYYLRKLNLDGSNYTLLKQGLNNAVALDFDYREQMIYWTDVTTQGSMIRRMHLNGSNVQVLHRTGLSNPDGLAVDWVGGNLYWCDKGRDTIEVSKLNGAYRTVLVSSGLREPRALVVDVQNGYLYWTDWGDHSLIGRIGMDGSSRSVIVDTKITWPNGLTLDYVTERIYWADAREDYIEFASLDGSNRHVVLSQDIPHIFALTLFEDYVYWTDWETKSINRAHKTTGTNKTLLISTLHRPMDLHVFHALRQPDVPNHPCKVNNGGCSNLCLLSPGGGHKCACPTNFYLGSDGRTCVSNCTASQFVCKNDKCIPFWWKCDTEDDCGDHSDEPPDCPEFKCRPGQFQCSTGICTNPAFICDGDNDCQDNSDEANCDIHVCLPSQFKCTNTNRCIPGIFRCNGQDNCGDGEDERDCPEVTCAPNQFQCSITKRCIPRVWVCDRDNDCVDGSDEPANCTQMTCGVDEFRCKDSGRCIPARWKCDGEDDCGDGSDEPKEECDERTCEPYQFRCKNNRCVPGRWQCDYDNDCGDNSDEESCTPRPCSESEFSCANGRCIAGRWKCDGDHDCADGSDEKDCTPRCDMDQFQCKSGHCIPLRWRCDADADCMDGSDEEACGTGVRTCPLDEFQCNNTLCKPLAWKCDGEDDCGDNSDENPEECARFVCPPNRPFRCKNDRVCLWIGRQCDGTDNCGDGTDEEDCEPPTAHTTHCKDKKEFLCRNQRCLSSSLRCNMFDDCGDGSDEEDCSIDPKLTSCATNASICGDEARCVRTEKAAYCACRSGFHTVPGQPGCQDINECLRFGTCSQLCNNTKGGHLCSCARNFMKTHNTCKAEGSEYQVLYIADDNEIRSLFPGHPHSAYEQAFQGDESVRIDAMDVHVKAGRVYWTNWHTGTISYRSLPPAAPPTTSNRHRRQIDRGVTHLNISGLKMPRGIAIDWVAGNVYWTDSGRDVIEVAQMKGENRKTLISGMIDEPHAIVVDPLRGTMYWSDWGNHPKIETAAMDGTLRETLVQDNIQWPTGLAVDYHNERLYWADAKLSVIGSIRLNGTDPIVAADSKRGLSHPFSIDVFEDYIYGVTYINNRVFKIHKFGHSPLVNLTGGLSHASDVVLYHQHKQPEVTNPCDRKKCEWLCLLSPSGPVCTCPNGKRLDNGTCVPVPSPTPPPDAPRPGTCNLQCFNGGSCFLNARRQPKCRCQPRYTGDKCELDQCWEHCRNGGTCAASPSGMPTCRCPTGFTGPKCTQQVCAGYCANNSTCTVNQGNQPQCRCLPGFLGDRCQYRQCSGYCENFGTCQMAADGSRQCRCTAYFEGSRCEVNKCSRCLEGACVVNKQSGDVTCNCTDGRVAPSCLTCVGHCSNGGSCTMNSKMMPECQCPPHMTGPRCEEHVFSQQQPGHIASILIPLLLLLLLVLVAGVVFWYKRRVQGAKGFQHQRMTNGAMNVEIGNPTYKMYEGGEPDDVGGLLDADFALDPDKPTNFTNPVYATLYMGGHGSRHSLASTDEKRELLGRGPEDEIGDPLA
T1 sequence (P78536 215-671): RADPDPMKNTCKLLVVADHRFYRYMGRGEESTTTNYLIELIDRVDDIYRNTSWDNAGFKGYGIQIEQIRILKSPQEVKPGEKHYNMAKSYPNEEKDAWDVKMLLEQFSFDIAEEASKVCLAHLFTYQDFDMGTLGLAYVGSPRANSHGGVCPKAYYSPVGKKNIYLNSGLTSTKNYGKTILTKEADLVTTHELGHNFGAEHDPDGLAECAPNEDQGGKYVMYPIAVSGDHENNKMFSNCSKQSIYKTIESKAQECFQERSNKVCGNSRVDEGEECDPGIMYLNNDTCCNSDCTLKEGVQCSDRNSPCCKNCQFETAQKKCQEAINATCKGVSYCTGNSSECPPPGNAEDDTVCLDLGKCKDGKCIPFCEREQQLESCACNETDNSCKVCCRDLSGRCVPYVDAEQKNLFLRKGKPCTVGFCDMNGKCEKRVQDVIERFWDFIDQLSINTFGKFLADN

B1: TIMP-3 K22A/K110A, C-terminally FLAG-tagged (natural protein)
chain: CTCSPSHPQDAFCNSDIVIRAAVVGKKLVKEGPFGTLVYTIKQMKMYRGFTKMPHVQYIHTEASESLCGLKLEVNKYQYLLTGRVYDGKMYTGLCNFVERWDQLTLSQRAGLNYRYHLGCNCKIKSCYYLPCFVTSKNECLWTDMLSNFGYPGYQSKHYACIRQKGGYCSWYRGWAPPDKSIINATDP
Q: Which percentage remaining in the medium of HTB94 chondrosarcoma cells after 24 h (1 nM, anti-FLAG immunoblot and densitometry) [1] does the source give for B1 here?
A: The percentage remaining in the medium of HTB94 chondrosarcoma cells after 24 h (1 nM, anti-FLAG immunoblot and densitometry) was > 50%.

B2: TIMP-3 K45A/K89A, C-terminally FLAG-tagged (natural protein)
chain: CTCSPSHPQDAFCNSDIVIRAKVVGKKLVKEGPFGTLVYTIKQMAMYRGFTKMPHVQYIHTEASESLCGLKLEVNKYQYLLTGRVYDGAMYTGLCNFVERWDQLTLSQRKGLNYRYHLGCNCKIKSCYYLPCFVTSKNECLWTDMLSNFGYPGYQSKHYACIRQKGGYCSWYRGWAPPDKSIINATDP
Q: For B2, which percentage remaining in the medium of HTB94 chondrosarcoma cells after 24 h (1 nM, anti-FLAG immunoblot and densitometry) [1] is on record?
A: Its percentage remaining in the medium of HTB94 chondrosarcoma cells after 24 h (1 nM, anti-FLAG immunoblot and densitometry) is > 50%.

B3: TIMP-3 K42A/K157A, C-terminally FLAG-tagged (natural protein)
chain: CTCSPSHPQDAFCNSDIVIRAKVVGKKLVKEGPFGTLVYTIAQMKMYRGFTKMPHVQYIHTEASESLCGLKLEVNKYQYLLTGRVYDGKMYTGLCNFVERWDQLTLSQRKGLNYRYHLGCNCKIKSCYYLPCFVTSKNECLWTDMLSNFGYPGYQSAHYACIRQKGGYCSWYRGWAPPDKSIINATDP
Q: With B3 as the binder, how does the percentage remaining in the medium of HTB94 chondrosarcoma cells after 24 h (1 nM, anti-FLAG immunoblot and densitometry) [1] read?
A: Its percentage remaining in the medium of HTB94 chondrosarcoma cells after 24 h (1 nM, anti-FLAG immunoblot and densitometry) is > 50%.

B4: TIMP-3 K42A, C-terminally FLAG-tagged (natural protein)
chain: CTCSPSHPQDAFCNSDIVIRAKVVGKKLVKEGPFGTLVYTIAQMKMYRGFTKMPHVQYIHTEASESLCGLKLEVNKYQYLLTGRVYDGKMYTGLCNFVERWDQLTLSQRKGLNYRYHLGCNCKIKSCYYLPCFVTSKNECLWTDMLSNFGYPGYQSKHYACIRQKGGYCSWYRGWAPPDKSIINATDP
Q: With B4 as the binder, how does the half-life of loss from the medium of HTB94 chondrosarcoma cells (1 nM, 0-24 h, anti-FLAG immunoblot and densitometry) [2] read?
A: Its half-life of loss from the medium of HTB94 chondrosarcoma cells (1 nM, 0-24 h, anti-FLAG immunoblot and densitometry) is 8.8 h.

B5: TIMP-3 K30A/K76A, C-terminally FLAG-tagged (natural protein)
chain: CTCSPSHPQDAFCNSDIVIRAKVVGKKLVAEGPFGTLVYTIKQMKMYRGFTKMPHVQYIHTEASESLCGLKLEVNAYQYLLTGRVYDGKMYTGLCNFVERWDQLTLSQRKGLNYRYHLGCNCKIKSCYYLPCFVTSKNECLWTDMLSNFGYPGYQSKHYACIRQKGGYCSWYRGWAPPDKSIINATDP
Q: Which percentage remaining in the medium of HTB94 chondrosarcoma cells after 24 h (1 nM, anti-FLAG immunoblot and densitometry) [1] does the source give for B5 here?
A: The percentage remaining in the medium of HTB94 chondrosarcoma cells after 24 h (1 nM, anti-FLAG immunoblot and densitometry) was > 50%.

B6: TIMP-3 K71A/K157A, C-terminally FLAG-tagged (natural protein)
chain: CTCSPSHPQDAFCNSDIVIRAKVVGKKLVKEGPFGTLVYTIKQMKMYRGFTKMPHVQYIHTEASESLCGLALEVNKYQYLLTGRVYDGKMYTGLCNFVERWDQLTLSQRKGLNYRYHLGCNCKIKSCYYLPCFVTSKNECLWTDMLSNFGYPGYQSAHYACIRQKGGYCSWYRGWAPPDKSIINATDP
Q: For B6, which percentage remaining in the medium of HTB94 chondrosarcoma cells after 24 h (1 nM, anti-FLAG immunoblot and densitometry) [1] is on record?
A: Its percentage remaining in the medium of HTB94 chondrosarcoma cells after 24 h (1 nM, anti-FLAG immunoblot and densitometry) is > 50%.

B7: TIMP-3 K22A/K157A, C-terminally FLAG-tagged (natural protein)
chain: CTCSPSHPQDAFCNSDIVIRAAVVGKKLVKEGPFGTLVYTIKQMKMYRGFTKMPHVQYIHTEASESLCGLKLEVNKYQYLLTGRVYDGKMYTGLCNFVERWDQLTLSQRKGLNYRYHLGCNCKIKSCYYLPCFVTSKNECLWTDMLSNFGYPGYQSAHYACIRQKGGYCSWYRGWAPPDKSIINATDP
Q: Which percentage remaining in the medium of HTB94 chondrosarcoma cells after 24 h (1 nM, anti-FLAG immunoblot and densitometry) [1] does the source give for B7 here?
A: The percentage remaining in the medium of HTB94 chondrosarcoma cells after 24 h (1 nM, anti-FLAG immunoblot and densitometry) was > 50%.

B8: TIMP-3 K27A/K45A, C-terminally FLAG-tagged (natural protein)
chain: CTCSPSHPQDAFCNSDIVIRAKVVGKALVKEGPFGTLVYTIKQMAMYRGFTKMPHVQYIHTEASESLCGLKLEVNKYQYLLTGRVYDGKMYTGLCNFVERWDQLTLSQRKGLNYRYHLGCNCKIKSCYYLPCFVTSKNECLWTDMLSNFGYPGYQSKHYACIRQKGGYCSWYRGWAPPDKSIINATDP
Q: B8 was tested. Which percentage remaining in the medium of HTB94 chondrosarcoma cells after 24 h (1 nM, anti-FLAG immunoblot and densitometry) [1] did it give?
A: Its percentage remaining in the medium of HTB94 chondrosarcoma cells after 24 h (1 nM, anti-FLAG immunoblot and densitometry) is > 50%.

B9: TIMP-3 K71A, C-terminally FLAG-tagged (natural protein)
chain: CTCSPSHPQDAFCNSDIVIRAKVVGKKLVKEGPFGTLVYTIKQMKMYRGFTKMPHVQYIHTEASESLCGLALEVNKYQYLLTGRVYDGKMYTGLCNFVERWDQLTLSQRKGLNYRYHLGCNCKIKSCYYLPCFVTSKNECLWTDMLSNFGYPGYQSKHYACIRQKGGYCSWYRGWAPPDKSIINATDP
Q: How did the half-life of loss from the medium of HTB94 chondrosarcoma cells (1 nM, 0-24 h, anti-FLAG immunoblot and densitometry) [2] turn out when B9 was run?
A: Its half-life of loss from the medium of HTB94 chondrosarcoma cells (1 nM, 0-24 h, anti-FLAG immunoblot and densitometry) is 12.9 h.

B10: TIMP-3 K157A, C-terminally FLAG-tagged (natural protein)
chain: CTCSPSHPQDAFCNSDIVIRAKVVGKKLVKEGPFGTLVYTIKQMKMYRGFTKMPHVQYIHTEASESLCGLKLEVNKYQYLLTGRVYDGKMYTGLCNFVERWDQLTLSQRKGLNYRYHLGCNCKIKSCYYLPCFVTSKNECLWTDMLSNFGYPGYQSAHYACIRQKGGYCSWYRGWAPPDKSIINATDP
Q: How did the half-life of loss from the medium of HTB94 chondrosarcoma cells (1 nM, 0-24 h, anti-FLAG immunoblot and densitometry) [2] turn out when B10 was run?
A: The half-life of loss from the medium of HTB94 chondrosarcoma cells (1 nM, 0-24 h, anti-FLAG immunoblot and densitometry) was 7.8 h.

B11: TIMP-3 K30A/K52A, C-terminally FLAG-tagged (natural protein)
chain: CTCSPSHPQDAFCNSDIVIRAKVVGKKLVAEGPFGTLVYTIKQMKMYRGFTAMPHVQYIHTEASESLCGLKLEVNKYQYLLTGRVYDGKMYTGLCNFVERWDQLTLSQRKGLNYRYHLGCNCKIKSCYYLPCFVTSKNECLWTDMLSNFGYPGYQSKHYACIRQKGGYCSWYRGWAPPDKSIINATDP
Q: Which percentage remaining in the medium of HTB94 chondrosarcoma cells after 24 h (1 nM, anti-FLAG immunoblot and densitometry) [1] does the source give for B11 here?
A: Its percentage remaining in the medium of HTB94 chondrosarcoma cells after 24 h (1 nM, anti-FLAG immunoblot and densitometry) is > 50%.

B12: TIMP-3 K26A/K45A, C-terminally FLAG-tagged (natural protein, UniProt P35625 24-211, looked up)
chain: CTCSPSHPQDAFCNSDIVIRAKVVGAKLVKEGPFGTLVYTIKQMAMYRGFTKMPHVQYIHTEASESLCGLKLEVNKYQYLLTGRVYDGKMYTGLCNFVERWDQLTLSQRKGLNYRYHLGCNCKIKSCYYLPCFVTSKNECLWTDMLSNFGYPGYQSKHYACIRQKGGYCSWYRGWAPPDKSIINATDP
notes: TIMP-3, secreted into the conditioned medium; source: for the screen also transiently transfected, conditioned medium dialyzed against TBS; not shown: FLAG, C-terminal, kept
Q: How did the Ki (ADAM17 ectodomain) turn out when B12 was run?
A: Its Ki is 3.78 nM.

Q: What about the Ki [3] of the same binder?
A: Its Ki is 0.63 nM.

Q: What about the Ki [4] of the same binder?
A: The Ki was 0.95 nM.

Q: And the Ki [5]?
A: Its Ki is 0.12 nM.

Q: What about the Ki [6] of the same binder?
A: Its Ki is 0.52 nM.

Q: And the Ki [7]?
A: The Ki was 0.92 nM.
